± gives the uncertainty stated by the source.
Test: self-splicing fitness, log relative to wild type (ln ratio); higher = more splicing; Tetrahymena group I intron in knt gene, E. coli kanamycin selection, DiMSum; sequences stand for … in CUCUCU…GGAGGGAAAAGUUAUCAGGCAUGCACCUGGUAGCUAGUCUUUAAACCAAUAGAUUGCAUCGGUUUAAAAGGCAAGACCGUCAAAUUGCGGGAAAGGGGUCAACAGCCGUUCAGUACCAAGUCUCAGGGGAAACUUUGAGAUGGCCUUGCAAAGGGUAUGGUAAUAAGCUGACGGACAUGGUCCUAACCACGCAGCCAAGUCCUAAGUCAACAGAUCUUCUGUUGAUAUGGAUGCAGUUCACAGACUAAAUGUCGGUCGGGGAAGAUGUAUUCUUCUCAUAAGAUAUAGUCGGACCUCUCCUUAAUGGGAGCUAGCGGAUGAAGUGAUGCAACACUGGAGCCGCUGGGAACUAAUUUGUAUGCGAAAGUAUAUUGAUUAGUUUUGGAGUACUCGUGGUCG
Method in brief: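 Library with all eight P1ex-region intron nucleotides randomised, intron inside the knt kanamycin-resistance gene on pET-22b(+), in E. coli BL21(DE3). Cells grew overnight at 37°C or 30°C on LB agar with or without 25 μg/mL kanamycin (plus 100 μg/mL carbenicillin, 50 μM IPTG, 0.2% rhamnose), in six replicate transformations. Pooled colonies were amplicon-sequenced on Illumina HiSeq 2500. DiMSum fitness is the error-weighted combination of wild-type-normalised replicate fold changes, kanamycin versus none.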

| Sequence | self-splicing fitness (ln) (30 °C) | self-splicing fitness (ln) (37 °C) |
| --- | --- | --- |
| UAGCAGCAAUAUUACGAUCG | -0.76 ± 0.093 | -0.0334 ± 0.12 |
| UAGCAGCAAUAUUACGCCGA | -0.884 ± 0.14 | 0.482 ± 0.14 |
| UAGCAGCAAUAUUACGCCGG | -0.94 ± 0.096 | -0.0813 ± 0.15 |
| UAGCAGCAAUAUUACGGACG | -0.528 ± 0.08 | -0.837 ± 0.1 |
| UAGCAGCAAUAUUACGGCCA | 0.54 ± 0.1 | 0.33 ± 0.16 |
| UAGCAGCAAUAUUACGGCCU | -0.225 ± 0.093 | 0.118 ± 0.12 |
| UAGCAGCAAUAUUACGUACA | -1.16 ± 0.091 | -0.0473 ± 0.1 |
| UAGCAGCAAUAUUACGUACC | -1.91 ± 0.38 |  |
| UAGCAGCAAUAUUACGUCCC | -3.06 ± 0.41 | -1.7 ± 0.4 |
| UAGGAGCAAUAUUACGAACC | -3.08 ± 0.41 |  |
| UAGGAGCAAUAUUACGCACA | -0.278 ± 0.33 | -0.212 ± 0.38 |
| UAGGAGCAAUAUUACGCACU |  | -0.383 ± 0.28 |
| UAGGAGCAAUAUUACGCGGA | -3.57 ± 0.38 | -2.52 ± 0.26 |
| UAGGAGCAAUAUUACGCGUG | -2.31 ± 0.12 | -0.579 ± 0.12 |
| UAGGAGCAAUAUUACGCUCG | -1.49 ± 0.21 | 0.196 ± 0.24 |
| UAGGAGCAAUAUUACGGAAU | -4.06 ± 0.36 | -2.51 ± 0.33 |
| UAGGAGCAAUAUUACGGAGA |  | -2.34 ± 0.38 |
| UAGGAGCAAUAUUACGGAGU | -1.77 ± 0.36 |  |
| UAGGAGCAAUAUUACGGGAU | -3.21 ± 0.35 | -2.27 ± 0.37 |
| UAGGAGCAAUAUUACGGUUA | -1.64 ± 0.12 | 0.0427 ± 0.11 |
| UAGGAGCAAUAUUACGUAGU | -3.13 ± 0.3 | -1.81 ± 0.3 |

| Sequence | self-splicing fitness (ln) (30 °C) | self-splicing fitness (ln) (37 °C) |
| --- | --- | --- |
| UAGGAGCAAUAUUACGUAUU | -1.97 ± 0.36 | -2.45 ± 0.41 |
| UAGGAGCAAUAUUACGUGAU | -3.75 ± 0.35 | -1.44 ± 0.3 |
| UAGGAGCAAUAUUACGUGCU | -3.16 ± 0.34 | -1.05 ± 0.23 |
| UAGUAGCAAUAUUACGAACU | -0.595 ± 0.16 | -1.05 ± 0.15 |
| UAGUAGCAAUAUUACGACUG | 0.526 ± 0.14 | -0.333 ± 0.17 |
| UAGUAGCAAUAUUACGAGUC | -4.06 ± 0.33 | -2.03 ± 0.23 |
| UAGUAGCAAUAUUACGCCAG | -2.8 ± 0.15 | -1.94 ± 0.15 |
| UAGUAGCAAUAUUACGCCCG | -0.0603 ± 0.35 | 0.255 ± 0.44 |
| UAGUAGCAAUAUUACGCGAU | -2.23 ± 0.42 | -0.904 ± 0.3 |
| UAGUAGCAAUAUUACGCGCC | -2.32 ± 0.28 | -0.984 ± 0.23 |
| UAGUAGCAAUAUUACGCUGU | -3.6 ± 0.36 | -1.91 ± 0.32 |
| UAGUAGCAAUAUUACGGAGC | -2.84 ± 0.35 |  |
| UAGUAGCAAUAUUACGGAGG |  | -1.43 ± 0.44 |
| UAGUAGCAAUAUUACGGCGA | -1.17 ± 0.17 | -0.54 ± 0.17 |
| UAGUAGCAAUAUUACGGCUA | 0.21 ± 0.14 | -0.257 ± 0.19 |
| UAGUAGCAAUAUUACGGUUU | -3.57 ± 0.31 | -0.883 ± 0.16 |
| UAGUAGCAAUAUUACGUCUU | -0.75 ± 0.097 | -0.388 ± 0.11 |
| UAUAAGCAAUAUUACGAAUG | -1.24 ± 0.087 | -0.222 ± 0.11 |
| UAUAAGCAAUAUUACGAAUU | -2.74 ± 0.19 | -0.731 ± 0.2 |
| UAUAAGCAAUAUUACGACGC | -3.44 ± 0.23 | -1.19 ± 0.17 |

— the supplement of paper PMC7877785
